Experimental data as given in US20230383007A1 (BIOSION, published 2023).

T1: human TROP2-his protein (human, UniProt P09758 27-274)
T1 construct: also called biotin labeled human TROP2-his protein
T1 sequence: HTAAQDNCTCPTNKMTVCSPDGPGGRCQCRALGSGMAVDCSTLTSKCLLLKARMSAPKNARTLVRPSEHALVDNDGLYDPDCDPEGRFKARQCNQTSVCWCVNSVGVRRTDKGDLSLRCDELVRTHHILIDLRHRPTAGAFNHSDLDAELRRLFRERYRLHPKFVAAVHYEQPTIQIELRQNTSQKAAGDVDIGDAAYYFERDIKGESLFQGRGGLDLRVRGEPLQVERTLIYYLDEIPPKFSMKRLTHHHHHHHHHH

B1: sacituzumab (benchmark, an analog of sacituzumab, in house made) (antibody, human IgG1, kappa, V domains shown)
VH: SVQLQQSGSELKKPGASVKVSCKASGYTFTNYGMNWVKQAPGQGLKWMGWINTYTGEPTYTDDFKGRFAFSLDTSVSTAYLQISSLKADDTAVYFCARGGFGSSYWYFDVWGQGSLVTVSS
VL: DIQLTQSPSSLSASVGDRVSITCKASQDVSIAVAWYQQKPGKAPKLLIYSASYRYTGVPDRFSGSGSGTDFTLTISSLQPEDFAVYYCQQHYITPLTFGAGTKVEIKR
notes: also called BM; BM1
B2: single domain antibody 01-9F (VHH)
VHH: QVQLVESGGGSVQAGGSLRLSCVVSGLPYERYCVAWFRQGPGKEREGVARILSDGTTSYSDSVKGRFTISKDNAKNTLYLQMNSLKSEDTATYYCAAEAFRPFTPSDGDCTTVLGIDYWGKGTPVTVSS

Columns and labels:
human TROP2-his protein [1] = target: T1, human TROP2-his protein; assay: competitive ELISA: soluble benchmark pre-mixed with biotin labeled human TROP2-his, added to plate coated with the benchmark (self-competition); unit taken from the x axis (nM)
human TROP2-his protein [2] = target: T1, human TROP2-his protein; assay: SPR Biacore T200; antibody captured on anti-human IgG chip, 40 nM human TROP2-his as analyte
Excerpt: (§1) The purified anti-TROP2 mouse monoclonal antibodies (mAbs) were characterized for binding affinity and binding kinetics by Biacore T200 system (GE healthcare, Pittsburgh, PA, USA). Briefly, goat anti-human IgG (GE healthcare, Cat #BR100839, Human Antibody Capture Kit) was covalently linked to a CM5 chip (carboxy methyl dextran coated chip from GE healthcare #BR100530) via primary amines, using a standard amine coupling kit (GE healthcare, Pittsburgh, PA, USA) provided by Biacore. Un-reacted moieties on the chip (biosensor) surface were blocked with ethanolamine. The anti-TROP2 antibodies of the disclosure and the benchmark at the concentration of 2 μg/ml were respectively flowed onto the chip at a flow rate of 10 μL/min. Then, serially diluted human TROP2-his protein (prepared in-house with SEQ ID NO: 16), or cynomolgus TROP2-his protein (prepared in-house with SEQ ID NO: 19), 2-fold dilution in HBS-EP⁺ buffer (provided by Biacore) starting at 160 nM, were flowed onto the chip at a flow rate of 30 μL/min. The antigen-antibody association kinetics was followed for 2 minutes and the dissociation kinetics was followed for 10 minutes. The association and dissociation curves were fit to a 1:1 Langmuir binding model using BIAcore evaluation software.
For the BIAcore test, cell supernatants containing humanized 01-9F-CDR-V11 antibodies were respectively flowed onto the chip at a flow rate of 10 μL/min, and 40 nM human TROP2-his protein (prepared in-house with SEQ ID NO: 16) in HBS-EP⁺ buffer (provided by Biacore) were flowed onto the chip at a flow rate of 30 μL/min.

human TROP2-his protein [3] = target: T1, human TROP2-his protein; assay: SPR Biacore; antibody captured on anti-human IgG chip, 40 nM human TROP2-his as analyte
Excerpt: as §1
For the BIAcore test, cell supernatants containing the 01-9F-Fc variants were respectively flowed onto the chip instead of the purified anti-TROP2 antibodies, at a flow rate of 10 μL/min, and 40 nM human TROP2-his proteins (prepared in-house with SEQ ID NO: 16) in HBS-EP⁺ buffer (provided by Biacore), instead of serially diluted human TROP2-his proteins, were flowed onto the chip at a flow rate of 30 μL/min.

human TROP2-his protein [4] = target: T1, human TROP2-his protein; assay: indirect ELISA, plate coated with 1 ug/ml TROP2-his; bacterial culture supernatant
Method: ELISA plates were coated with 100 μl 1 μg/ml human TROP2-his protein (in house made with SEQ ID NO: 16), or 1 μg/ml cynomolgus TROP2-his protein (in house made with SEQ ID NO: 19) in carbonate/bicarbonate buffer (pH 9.6) overnight at 4° C., washed once with wash buffer (PBS+0.05% v/v Tween-20, PBST) and then blocked with 200 μl/well blocking buffer (5% w/v non-fatty milk in PBST) for 2 hours at 37° C. Plates were washed 4 times, and respectively incubated with 100 μl bacterial culture supernatant, and sacituzumab (used as the benchmark, also referred to as BM or BM1 hereinafter, in house made with heavy chain and light chain amino acid sequences set forth in SEQ ID NOs: 17 and 18) in 5% w/v non-fatty milk in PBST at 200 ng/ml, for 40 minutes at 37° C. The plates were washed 4 times, and incubated with THE™ HA Tag Antibody [HRP], mAb, Mouse Antibody (1:5000 dilution in PBST, GenScript, Cat #A01296, 100 μl/well, for plates with bacterial culture supernatans of the disclosure) or Peroxidase AffiniPure F(ab′)₂ Fragment Goat Anti-Human IgG, Fey fragment specific (Jackson Immunoresearch, Cat #109-036-098, for plates with the benchmark), for 40 minutes at 37° C. After a final wash, plates were incubated with 100 μl/well ELISA substrate TMB (Innoreagents, Cat #TMB-S-002) at room temperature. The reaction was stopped in 3-10 minutes with 50 μl/well 1M H₂SO₄, and the absorbance of each well was read on a microplate reader using dual wavelength mode with 450 nm for TMB and 630 nm as the reference wavelength. When the OD of a sample well was 2 times higher than the OD of the blank well, the sample can be determined as positive.

human TROP2-his protein [5] = target: T1, human TROP2-his protein; assay: competitive ELISA: antibody pre-mixed with biotin labeled human TROP2-his, added to plate coated with the benchmark (sacituzumab analog); unit taken from the x axis (ng/mL)
Method: The anti-TROP2 antibodies were tested for their epitope binding in a competitive ELISA assay. Briefly, 100 μl of the benchmark at 1 μg/mL in PBS was coated on 96-well micro plates for 2 hours at 37° C. ELISA plates were washed once with wash buffer (PBS+0.05% v/v Tween-20, PBST) and then blocked with 200 μl blocking buffer (5% w/v non-fatty milk in PBST) for 2 hours at 37° C. While blocking, the anti-TROP2 antibodies of the disclosure or controls were diluted with biotin labeled human TROP2-his protein (SEQ ID NO: 16, 34 ng/mL in 2.5% w/v non-fatty milk in PBST), starting at 80 nM with a 5-fold serial dilution, and incubated at room temperature for 40 minutes. After plate washing 4 times, the antibody/TROP2-his protein mixtures were added to benchmark coated plates, 100 μl per well. After incubation at 37° C. for 40 minutes, plates were washed 4 times again using wash buffer. Then the plates were added and incubated with 100 μl Peroxidase Streptavidin (1:10000 dilution in PBST buffer, Jackson Immunoresearch, Cat #016-030-084) for 40 minutes at 37° C. Plates were washed again using wash buffer. […] The absorbance of each well was read on a microplate reader using dual wavelength mode with 450 nm for TMB and 630 nm as the reference wavelength, and the OD (450-630) values were plotted against antibody concentration. Data was analyzed using Graphpad Prism software and IC₅₀ values were reported.

Row | Binder | IC50 (human TROP2-his protein [1]) | Kd (human TROP2-his protein [2]) | koff (human TROP2-his protein [2]) | kon (human TROP2-his protein [2]) | Kd (human TROP2-his protein [3]) | koff (human TROP2-his protein [3]) | kon (human TROP2-his protein [3]) | Indirect ELISA OD (450-630) (human TROP2-his protein [4]) | IC50 (human TROP2-his protein [5])
1 | B1 | 0.563 nM | – | – | – | – | – | – | – | –
2 | B2 | – | 0.188 nM | 0.000224 s⁻¹ | 1.19e+06 M⁻¹ s⁻¹ | 0.202 nM | 0.000101 s⁻¹ | 502000 M⁻¹ s⁻¹ | 0.97 OD (450-630) | 0.0274 µg/mL
